Assay results reported in publication PMC4122979, “The N-terminal portion of autoinhibitory element modulates human endothelial nitric-oxide synthase activity through coordinated controls of phosphorylation at Thr^495 and Ser^1177” (Bioscience Reports, 2014).

Target: CaM (calmodulin) (UniProt P0DP23)
Test: CaM mobility shift on non-denaturing PAGE
Conditions: reference: unmodified T495 peptide; sites T495

binding against the reference: weaker
Substance: eNOS (endothelial nitric-oxide synthase; heNOS) CaM-binding domain (CBD), 491-510 (from UniProt P29474) pT495 peptide
